According to patent US20190352426A1, “PLAZOMICIN ANTIBODIES AND METHODS OF USE” (Achaogen, Inc., priority 2016, published 2019):
Numbering of substitutions follows the chain as printed. Blank lines part the entries; values can stand above or below the molecule they belong to.

Assays:
Format in all cases: binding
[1] = competitive ELISA on BSA-bromo-plazomicin coated plates, free sisomicin; details: free sisomicin 0.013-270 μg/ml incubated with antibody at 0.05 nM, then added to BSA-bromo-plazomicin-coated ELISA plates
Procedure: (§1) The purified antibodies were then analyzed for binding to BSA-plazomicin by ELISA (the tested concentrations of antibodies ranged from 0.0001 nM to 100 nM). (FIG. 1A) and competitive ELISA (FIG. 1B) on BSA-bromo-plazomicin coated ELISA plates. For competitive ELISAs, free aminoglycosides (plazomicin, gentamicin, amikacin, and sisomicin) at concentrations; 270 μg/ml, 90 μg/ml 30 μg/ml, 10 μg/ml, 3.3 μg/ml, 1.1 μg/ml, 0.4 μg/ml, 0.12 μg/ml, 0.04 μg/ml and 0.013 μg/ml were incubated with one of 10 purified monoclonal antibodies derived from the cell cultures described above; MC329, MC330, MC331, MC332, MC334, […], […], MC337, MC339, MC340 at 0.05 nM concentration (FIG. 1B). The antibody/aminoglycoside solutions were then added to BSA-bromo-plazomicin-coated ELISA plates. Plates were washed to remove unbound antibody, and IC50 values (μg/mL) were determined for each aminoglycoside and are shown below in Table 5.

[2] = competitive ELISA on BSA-bromo-plazomicin coated plates, free plazomicin; details: free plazomicin 0.013-270 μg/ml incubated with antibody at 0.05 nM, then added to BSA-bromo-plazomicin-coated ELISA plates
Procedure: as §1

[3] = competitive ELISA on BSA-bromo-plazomicin coated plates, free gentamicin; details: free gentamicin 0.013-270 μg/ml incubated with antibody at 0.05 nM, then added to BSA-bromo-plazomicin-coated ELISA plates
Procedure: as §1

B1: MC335: murine monoclonal anti-plazomicin antibody; heavy chain variable SEQ ID NO 66, light chain variable SEQ ID NO 70 (antibody, listed as Mus musculus, V domains shown)
VH: AGQLKESGPGLVKPSQSLSLTCTVTGSSITSDYAWNWIRQFPGNKLEWMGYISQSGSTSYNPSLKSRISITRDTSKNQFFLQLNSVTTEDTATYYCTGNSYTMDYWGQGTSVTVSS
VL: DIVMTQSPKFLLVSAGDRVTITCKASQSVSNDVAWYQQKPGQSPKLLISYASNRYTGVPDRFTGSGYGTDFTFTITTVQAEDLAVYFCQQDYSSPWTFGGGTKLEIK
Antibiotic IC50 Values for Aminoglycosides: Sisomicin [1]: 69.0 µg/mL
Antibiotic IC50 Values for Aminoglycosides: Plazomicin [2]: 0.59 µg/mL

B3: MC331: murine monoclonal anti-plazomicin antibody; heavy chain variable SEQ ID NO 42, light chain variable SEQ ID NO 46 (antibody, listed as Mus musculus, V domains shown)
VH: QVQLQQSGAELAKPGASVKMSCKASGNTFTSYWMHWIKQRPGQGLEWIGYIDPSTGYTEYNQKFKDRATLTADKSSNTAYMQLNSLTSEDSAVYYCTKSGKWDDYWGQGTTLTVSS
VL: B1 VL with D1S, S7T, S30T, S49C, T76S, Y92H, S93T, W96F
Antibiotic IC50 Values for Aminoglycosides: Sisomicin [1]: 83.0 µg/mL
Antibiotic IC50 Values for Aminoglycosides: Gentamicin [3]: 214.4 µg/mL
Antibiotic IC50 Values for Aminoglycosides: Plazomicin [2]: 0.43 µg/mL

B4: MC336: murine monoclonal anti-plazomicin antibody; heavy chain variable SEQ ID NO 74, light chain variable SEQ ID NO 78 (antibody, listed as Mus musculus, V domains shown)
VH: B1 VH with A1Q, G2M, K5Q, S27D, Q54Y, T71S, T88I
VL: B1 VL with D1S, S7T, K45N, T76S, S93I
Antibiotic IC50 Values for Aminoglycosides: Sisomicin [1]: 37.6 µg/mL
Antibiotic IC50 Values for Aminoglycosides: Gentamicin [3]: ~106.1 µg/mL
Antibiotic IC50 Values for Aminoglycosides: Plazomicin [2]: 0.25 µg/mL

B5: MC330: murine monoclonal anti-plazomicin antibody; heavy chain variable SEQ ID NO 34, light chain variable SEQ ID NO 38 (antibody, listed as Mus musculus, V domains shown)
VH: SDVQLQESGPGLVTPSQSLSLTCTVTGYSITSAYAWNWIRQFPGNKLEWLGYINSSGSTSYHPSLKGRISITRDTSKNQFFLQLNSVTTEDTATYYCTHTTSYFDYWGQGTTLTVSS
VL: B1 VL with D1S, S7T, L12I, T74A, W96Y, L104V
Antibiotic IC50 Values for Aminoglycosides: Sisomicin [1]: 9.9 µg/mL
Antibiotic IC50 Values for Aminoglycosides: Gentamicin [3]: 92.0 µg/mL
Antibiotic IC50 Values for Aminoglycosides: Plazomicin [2]: 0.02 µg/mL

B7: MC329: murine monoclonal anti-plazomicin antibody from hybridoma MC329; heavy chain variable SEQ ID NO 22, light chain SEQ ID NO 26, 30 (antibody, listed as Mus musculus, V domains shown)
VH: SDVQLQESGPGLVKPSQSLSLTCTVTGYSITTNYAWNWIRQFPGHKLEWMGYITSSGRTSYNPPLKSRISITRDTSRSQFFLRLNSVTTEDTATYFCTHTTAYLDYWGQGTTLTVSS
VL 1: B1 VL with D1S, S7T, T72A, T76N, V85F, W96Y
VL 2: DIKMTQSPSSMYASLGERVTITCKASQDIKSYLSWYQQIPWKSPKTLIYYATSLADGVPSRFSGSGSGQDYSLTISSLESDDTATYYCLQHGESPLTFGAGTKLELK
Antibiotic IC50 Values for Aminoglycosides: Sisomicin [1]: 83.0 µg/mL
Antibiotic IC50 Values for Aminoglycosides: Gentamicin [3]: 107.0 µg/mL
Antibiotic IC50 Values for Aminoglycosides: Plazomicin [2]: 0.43 µg/mL

B9: MC334: murine monoclonal anti-plazomicin antibody; heavy chain variable SEQ ID NO 58, light chain variable SEQ ID NO 62 (antibody, listed as Mus musculus, V domains shown)
VH: QVQLQQSGAELMKPGASVKISCKATGYKFSRYWIEWVKESPGHGLEWIGEIFPGSDSTDYNEKFKGKATLTADSSSNTAYMQLSSLTSEDSAVYYCARDGGGLDEFAYWGQGTPVIVSA
VL: DVVVTQIPLSLSVSFGDQVSISCRSSQSLTNSYGYTYLSWYLHKPGQSPQLLIYGISNRFSGVPDRFSGSGSGTDFTLKISTIKPEDLGMYYCLQGTHQPYTFGGGTKLEIR
Antibiotic IC50 Values for Aminoglycosides: Plazomicin [2]: 0.72 µg/mL

B10: MC332: murine monoclonal anti-plazomicin antibody; heavy chain variable SEQ ID NO 50, light chain variable SEQ ID NO 54 (antibody, listed as Mus musculus, V domains shown)
VH: B9 VH
VL: B9 VL with I7N
Antibiotic IC50 Values for Aminoglycosides: Plazomicin [2]: 0.94 µg/mL

Other lines, results leading:

Antibiotic IC50 Values for Aminoglycosides: Sisomicin [1]: 16.1 µg/mL
Antibiotic IC50 Values for Aminoglycosides: Gentamicin [3]: 107.6 µg/mL
Antibiotic IC50 Values for Aminoglycosides: Plazomicin [2]: 0.06 µg/mL
B2: MC337: murine monoclonal anti-plazomicin antibody; heavy chain variable SEQ ID NO 82, light chain variable SEQ ID NO 86 (antibody, listed as Mus musculus, V domains shown)
VH: QVQLQQPGPELVKPGASVKMSCKASGYTFTSYVIHWVKQKPGQGLEWIGYINPFNDGTKYNEKFKGKATLTSDKSSSTAYMELSSLTSEDSAVYYCEGVGSSGSDYWGQGTTLTVSS
VL: B1 VL with S7T, S30R, T76S, V85I, W96Y

Antibiotic IC50 Values for Aminoglycosides: Sisomicin [1]: 24.4 µg/mL
Antibiotic IC50 Values for Aminoglycosides: Gentamicin [3]: ~101.7 µg/mL
Antibiotic IC50 Values for Aminoglycosides: Plazomicin [2]: 0.12 µg/mL
B6: MC339: murine monoclonal anti-plazomicin antibody; heavy chain variable SEQ ID NO 90, light chain variable SEQ ID NO 94 (antibody, listed as Mus musculus, V domains shown)
VH: QVQLVQSGPELVKPGASVKVSCKASGFSFTDYNMYWVKQSHGKSLEWIGYIDPYNGGTSYNQKFKGKATLTFDKSSSTAFMHLNSLTSEDSAVYYCASAGNYDDYWGQGTTLTVSS
VL: B1 VL with S7T, K45T, S49Y, T76S, S93T, W96Y

Antibiotic IC50 Values for Aminoglycosides: Sisomicin [1]: 153 µg/mL
Antibiotic IC50 Values for Aminoglycosides: Plazomicin [2]: 19.0 µg/mL
B8: MC340: murine monoclonal anti-plazomicin antibody; heavy chain variable SEQ ID NO 98, light chain variable SEQ ID NO 102 (antibody, listed as Mus musculus, V domains shown)
VH: QVTLKESGGGLVQPGGSMKISCVVSGLTFRNYWMSWVRQSPEKGLEWVAEIRLKSDNYATHYAESVKGKFTISRDDSKSRLYLQMNSLRAEDTGIYYCTVYGKDFDYWGQGTTLTVSS
VL: B1 VL with I2V, S7T, T76S
